Test system: T1, O=[N+]([O-])c1ccc(OP(=O)(O)O)cc1
T1 construct: mature peptide of 302 residues (22-residue signal peptide removed; precursor 324 aa), N-terminal MBP tag (pMAL-c5X) kept, E. coli K12 TB1, amylose resin; forward primer F2 encodes MVEQGA
Test: purified protein
Format: biochemical, Oreochromis niloticus
Settings: substrate 5-25 mM, pH and temperature of the kinetic runs not stated (50 mM acetate; optimum pH 5.0, 50 °C; standard assay 37 °C)

Chain of (r)OnTRAP5b (Oreochromis niloticus) (chain, as listed by the source): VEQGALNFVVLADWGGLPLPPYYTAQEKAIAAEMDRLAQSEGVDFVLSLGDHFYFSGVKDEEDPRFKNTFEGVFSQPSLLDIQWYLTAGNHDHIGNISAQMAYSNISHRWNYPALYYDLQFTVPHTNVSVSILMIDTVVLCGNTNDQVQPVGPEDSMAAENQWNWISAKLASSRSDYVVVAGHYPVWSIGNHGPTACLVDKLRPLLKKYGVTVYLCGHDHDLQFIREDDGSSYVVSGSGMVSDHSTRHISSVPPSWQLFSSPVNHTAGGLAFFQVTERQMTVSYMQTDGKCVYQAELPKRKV

(r)OnTRAP5b (Oreochromis niloticus)
Km: 2112 µM
kcat: 0.27 s⁻¹
